Source: US20230391826A1 (SANFORD BURNHAM PREBYS MEDICAL DISCOVERY INSTITUTE, published 2023)
Like-named read-outs stand apart in the source and are kept apart here. Where no end group is shown, it is not given here. [ ]: non-standard residue; d: D form. The star is where a group is joined. Biotin = O=C1N[C@H]2[C@H](CS[C@H]2CCCCC(=O)*)N1; βAla = NCCC(=O)O; Cam = NC(=O)C*

Legend:
[1] = biological target: T1, EphA2 endogenously expressed on PC3 prostate cancer cells (UniProt P29317 24-976, limits assumed); test: cell-based or functional assay
[2] = biological target: T1, EphA2 endogenously expressed on PC3 …; test: cell-based or functional assay; remark: listed apart in the source
[3] = biological target: T2, EphA2 ligand binding domain (EphA2 LBD), residues 28-200 (UniProt P29317 28-200); test: ITC, soluble EphA2 LBD and peptide
T2 construct: range 28-200; Expressed in E. coli; also called soluble EphA2 LBD; soluble monomeric EphA2 LBD

[4] = biological target: T2, EphA2 ligand binding domain (EphA2 …); test: ITC, EphA2 LBD (200-250 µM) titrated into 10-12.5 µM peptide; single titration shown
[5] = biological target: T3, EphA2 extracellular domain fused to the Fc portion of an antibody (EphA2-Fc); test: ELISA, inhibition of ephrinA5-AP binding to immobilized EphA2-Fc; representative experiment, triplicates
T3 construct: extracellular domain; Immobilized on the ELISA wells; also called immobilized EphA2

[6] = biological target: T1, EphA2 endogenously expressed on PC3 …; test: cell-based or functional assay; remark: listed apart in the source
[7] = biological target: T3, EphA2 extracellular domain fused to the …; test: ELISA, inhibition of ephrinA5-AP binding to immobilized EphA2-Fc
[8] = biological target: T3, EphA2 extracellular domain fused to the …; test: as above; remark: listed apart in the source
[9] = biological target: T2, EphA2 ligand binding domain (EphA2 …); test: ITC, soluble EphA2 LBD and peptide; remark: listed apart in the source
Protocol: (§1) For ITC, all peptides are dissolved in DMSO and both the EphA2 LBD and the peptides are diluted to obtain a final buffer containing 9.5 mM HEPES, pH 7.9, 95 mM NaCl, and 5% DMSO. The experiments are carried out at 296 K (23° C.) using an ITC200 calorimeter (Microcal). Two-microliter aliquots of a peptide solution are injected into the cell containing 205 μL EphA2 LBD. 200-400 μM peptides are titrated into 20-40 μM EphA2 LBD. Experimental data are analyzed using the Origin software package (Microcal). The integrated values for the reaction heats are normalized to the amount of injected peptide after blank subtraction.

[10] = biological target: T2, EphA2 ligand binding domain (EphA2 …); test: ITC, soluble EphA2 LBD and peptide; remark: listed apart in the source
Protocol: as §1

[11] = biological target: T2, EphA2 ligand binding domain (EphA2 …); test: ITC, EphA2 LBD (200-250 µM) titrated into 10-12.5 µM peptide; single titration shown; remark: listed apart in the source
[12] = biological target: T2, EphA2 ligand binding domain (EphA2 …); test: as above; remark: listed apart in the source
[13] = biological target: T3, EphA2 extracellular domain fused to the …; test: ELISA, inhibition of ephrinA5-AP binding to immobilized EphA2-Fc; representative experiment, triplicates; remark: listed apart in the source
Protocol: FIG. 1A-1C illustrates an example of Potency and selectivity of EphA2-targeting dimeric peptides. […] The graphs show averages ±SD from triplicate measurements from a representative experiment. […] The 10 nM peptide concentration is outlined in red. […] Values are normalized to ephrin binding without peptide. The graphs show averages and SDs from triplicate measurements (with each measurement shown as a dot).

[14] = biological target: the molecule itself; test: quantitative FRET between mTURQ- and EYFP-tagged EphA2 L223R/L254R/V255R in HEK293 cells, no ligand; self-association, monomer-dimer fit

T3 sequence (P29317 whole entry, the tested form may be a part): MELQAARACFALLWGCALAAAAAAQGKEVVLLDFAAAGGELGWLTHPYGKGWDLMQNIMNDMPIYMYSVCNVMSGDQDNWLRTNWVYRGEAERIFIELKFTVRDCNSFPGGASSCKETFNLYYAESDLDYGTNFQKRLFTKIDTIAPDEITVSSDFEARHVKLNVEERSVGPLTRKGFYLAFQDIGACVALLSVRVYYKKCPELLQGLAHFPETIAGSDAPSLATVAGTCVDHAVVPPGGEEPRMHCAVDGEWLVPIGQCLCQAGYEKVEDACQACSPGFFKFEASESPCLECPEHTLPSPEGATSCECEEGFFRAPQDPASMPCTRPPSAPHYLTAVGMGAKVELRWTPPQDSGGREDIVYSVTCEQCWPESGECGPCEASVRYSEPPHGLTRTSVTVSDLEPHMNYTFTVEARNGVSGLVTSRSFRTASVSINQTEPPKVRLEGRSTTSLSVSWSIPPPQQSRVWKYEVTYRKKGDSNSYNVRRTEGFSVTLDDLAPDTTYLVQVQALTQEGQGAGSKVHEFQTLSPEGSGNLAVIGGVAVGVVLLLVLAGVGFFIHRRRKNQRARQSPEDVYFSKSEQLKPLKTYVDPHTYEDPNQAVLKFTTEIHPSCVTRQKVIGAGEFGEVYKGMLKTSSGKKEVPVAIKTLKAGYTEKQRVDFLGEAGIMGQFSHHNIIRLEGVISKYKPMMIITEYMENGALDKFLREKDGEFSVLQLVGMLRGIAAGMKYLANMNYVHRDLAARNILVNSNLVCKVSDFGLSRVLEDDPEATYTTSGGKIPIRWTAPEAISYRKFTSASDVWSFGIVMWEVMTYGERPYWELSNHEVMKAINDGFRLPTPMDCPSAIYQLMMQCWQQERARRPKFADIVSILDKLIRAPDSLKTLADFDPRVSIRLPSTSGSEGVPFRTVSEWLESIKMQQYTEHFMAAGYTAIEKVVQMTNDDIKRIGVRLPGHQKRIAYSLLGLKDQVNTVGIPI
T2 sequence (P29317 other isoform, or with tags, fused parts or gaps limits assumed, form in doubt): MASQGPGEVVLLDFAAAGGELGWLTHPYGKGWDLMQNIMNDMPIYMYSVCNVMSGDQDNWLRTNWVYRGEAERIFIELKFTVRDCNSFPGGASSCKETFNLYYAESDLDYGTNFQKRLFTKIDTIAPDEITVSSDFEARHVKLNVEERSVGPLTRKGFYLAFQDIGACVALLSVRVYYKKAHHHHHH

Binder | EC50 pAKT inhib [1] | EC50 pY588 [1] [nM] | Etop pAKT inhib [1] | Etop pY588 [1] | βlig (bias factor) [1] | Blig (bias factor) [2] | EC50 PY588 [2] [nM] | Emax PY588 [2] | IC50 PAKT [2] [nM] | Kd [3] [nM] | N (binding stoichiometry) [3] | IC50 [5] [nM] | IC50 [7] [nM] | IC50 [8] [nM] | Kd [9] [nM] | N (binding stoichiometry) [9] | -TΔS [10] [kcal/mol] | Kd [10] [nM] | N (binding stoichiometry) [10] | ΔH [10] [kcal/mol] | also measured
Lys-linked dimer (C-ter) (also: bond at chain A 15 to a chain's C-terminus) peptide 1: [βAla]WLAYPDSVPYRPKK peptide 2: [βAla]WLAYPDSVPYRPK | 0.42 nM | 2.6 | 1 | 0.46 normalized to ephrinA1-Fc | 0.79 | 0.79 | 2.4 | 0.37 normalized to ephrinA1-Fc | 0.63 | – | – | – | – | – | – | – | – | – | – | – | –
[βAla]WLAYPDSVPYGSGC (also: homodimer, disulfide at 15, other end not in the chain, C-terminally disulfide-linked homodimer made from monomer (9*); also called dimer (1); dimeric peptide (1)) [βA-WLA-YGSGC dimer (C-ter)] | 39 nM | – | 0.9 | 0.49 normalized to ephrinA1-Fc | 0.506 | – | – | – | – | 2900 | 1.7 | 67 | 71 | 71 | 2900 | 1.7 | 16.3 | 2900 | 1.7 | -23.9 | Kd [4]: 3760 nM; agonistic potency (pY588), fold lower than the other dimers with similar configuration [6]: 10 to 60 fold; ΔG [10]: -7.55 kcal/mol
CGAWLAYPDSVPYR (also: homodimer: N-terminal Cys of two chains joined by disulfide, N-terminally disulfide-linked homodimer made from monomer (15*); also called dimer (4)) [CGA-WLA-YR dimer (N-ter)] | 0.53 nM | – | 0.9 | 0.94 normalized to ephrinA1-Fc | 0.47 | – | – | – | – | 104 | 2 | 6.7 | 7.9 | 7.9 | 104 | 2 | 23.6 | 104 | 2 | -33.1 | Kd [11]: 103 nM; agonistic potency (pY588), fold lower than the other dimers with similar configuration [6]: 10 to 60 fold; ΔG [10]: -9.47 kcal/mol
CGAWLAYPDSVPYRPK-NH2 (also: homodimer: N-terminal Cys of two chains joined by disulfide) [CGA-WLA-YRPKam dimer (N-ter)] | 80 pM | 0.36 | 0.97 | 0.98 normalized to ephrinA1-Fc | 0.51 | 0.36 | 0.12 | 0.8 normalized to ephrinA1-Fc | 0.043 | – | – | – | – | – | – | – | – | – | – | – | –
[βAla]WLAYPDSVPYRPKC (also: homodimer, disulfide at 15, other end not in the chain, C-terminally disulfide-linked homodimer made from monomer (19*); also called dimer (2); dimeric peptide (2)) [βA-WLA-YRPKC dimer (C-ter)] | 0.82 nM | 5.6 | 0.86 | 0.5 normalized to ephrinA1-Fc | 0.73 | 1.28 | 2.6 | 0.39 normalized to ephrinA1-Fc | 0.22 | 380 | 2 | 0.47 | 0.5 | 0.5 | 380 | 2 | 19.5 | 380 | 2 | -28.2 | Kd [12]: 329 nM; ΔG [10]: -8.71 kcal/mol
[βAla]WLAYPDSVPYRPKGGAWLAYPDSVPYRPK-NH2 (N-terminus assumed; SMILES CC(C)C[C@H](NC(=O)[C@H](Cc1c[nH]c2ccccc12)NC(=O)CCN)C(=O)N[C@@H](C)C(=O)N[C@@H](Cc1ccc(O)cc1)C(=O)N1CCC[C@H]1C(=O)N[C@@H](CC(=O)O)C(=O)N[C@@H](CO)C(=O)N[C@H](C(=O)N1CCC[C@H]1C(=O)N[C@@H](Cc1ccc(O)cc1)C(=O)N[C@@H](CCCNC(=N)N)C(=O)N1CCC[C@H]1C(=O)N[C@@H](CCCCN)C(=O)NCC(=O)NCC(=O)N[C@@H](C)C(=O)N[C@@H](Cc1c[nH]c2ccccc12)C(=O)N[C@@H](CC(C)C)C(=O)N[C@@H](C)C(=O)N[C@@H](Cc1ccc(O)cc1)C(=O)N1CCC[C@H]1C(=O)N[C@@H](CC(=O)O)C(=O)N[C@@H](CO)C(=O)N[C@H](C(=O)N1CCC[C@H]1C(=O)N[C@@H](Cc1ccc(O)cc1)C(=O)N[C@@H](CCCNC(=N)N)C(=O)N1CCC[C@H]1C(=O)N[C@@H](CCCCN)C(N)=O)C(C)C)C(C)C) [linear dimer (head-to-tail)] | 90 pM | 0.73 | 0.87 | 0.76 normalized to ephrinA1-Fc | 0.62 | 0.62 | 0.49 | 0.61 normalized to ephrinA1-Fc | 0.12 | – | – | – | – | – | – | – | – | – | – | – | –
Click dimer (N-ter) (not fully specified; propargylglycine (Pra) at position 1, joined by a click linkage to KN3 of the other chain; C-terminal amide; azido-lysine (KN3) at position 1, joined by a click linkage to Pra of the other chain; C-terminal amide) peptide 1: KAWLAYPDSVPYRPK peptide 2: XGAWLAYPDSVPYRPK | 80 pM | 0.64 | 0.87 | 0.98 normalized to ephrinA1-Fc | 0.5 | 0.93 | 0.22 | 0.71 normalized to ephrinA1-Fc | 0.024 | – | – | – | – | – | – | – | – | – | – | – | –
C(Cam)GAWLAYPDSVPYRPK(Biotin) (also called monomer (10); monomeric peptide (10)) [CcamGA-WLA-YRPK-bio] | – | – | 1.06 | 0.48 normalized to ephrinA1-Fc | 0.64 | – | – | – | – | – | – | – | – | – | – | 0.8 | 25.5 | – | 0.8 | -35.1 | IC50 [13]: 22 nM
L223R/L254R/V255R (receptor, Carries mTURQ (donor) or EYFP (acceptor) at the C-terminus. The tag is not in the letters., mutant of m18 used in the FRET experiments; also called EphA2 L223R/L254R/V255R; clustering interface mutant; not shown: C-terminal fluorescent protein (mTURQ or EYFP) and any linker to it) AQGKEVVLLDFAAAGGELGWLTHPYGKGWDLMQNIMNDMPIYMYSVCNVMSGDQDNWLRTNWVYRGEAERIFIELKFTVRDCNSFPGGASSCKETFNLYYAESDLDYGTNFQKRLFTKIDTIAPDEITVSSDFEARHVKLNVEERSVGPLTRKGFYLAFQDIGACVALLSVRVYYKKCPELLQGLAHFPETIAGSDAPSRATVAGTCVDHAVVPPGGEEPRMHCAVDGEWRRPIGQCLCQAGYEKVEDACQACSPGFFKFEASESPCLECPEHTLPSPEGATSCECEEGFFRAPQDPASMPCTRPPSAPHYLTAVGMGAKVELRWTPPQDSGGREDIVYSVTCEQCWPESGECGPCEASVRYSEPPHGLTRTSVTVSDLEPHMNYTFTVEARNGVSGLVTSRSFRTASVSINQTEPPKVRLEGRSTTSLSVSWSIPPPQQSRVWKYEVTYRKKGDSNSYNVRRTEGFSVTLDDLAPDTTYLVQVQALTQEGQGAGSKVHEFQTLSPEGSGNLAVIGGVAVGVVLLLVLAGVGFFIHRRRKNQRARQSPEDVYFSKSEQLKPLKTYVDPHTYEDPNQAVLKFTTEIHPSCVTRQKVIGAGEFGEVYKGMLKTSSGKKEVPVAIKTLKAGYTEKQRVDFLGEAGIMGQFSHHNIIRLEGVISKYKPMMIITEYMENGALDKFLREKDGEFSVLQLVGMLRGIAAGMKYLANMNYVHRDLAARNILVNSNLVCKVSDFGLSRVLEDDPEATYTTSGGKIPIRWTAPEAISYRKFTSASDVWSFGIVMWEVMTYGERPYWELSNHEVMKAINDGFRLPTPMDCPSAIYQLMMQCWQQERARRPKFADIVSILDKLIRAPDSLKTLADFDPRVSIRLPSTSGSEGVPFRTVSEWLESIKMQQYTEHFMAAGYTAIEKVVQMTNDDIKRIGVRLPGHQKRIAYSLLGLKDQVNTVGIPI | – | – | – | – | – | – | – | – | – | – | – | – | – | – | – | – | – | – | – | – | binding result [14]: binds
YSAYPDSVPMMSGSGSK(Biotin) (Previously identified monomer, included for comparison; also called monomer (2*); 2*) [YSA-GSGSK-bio] | – | – | – | – | – | – | – | – | – | – | – | – | – | 850 | – | – | – | – | – | – | –
